Molecular target: T1, Granzyme B (Homo sapiens, UniProt P10144)
T1 construct: purchased Calbiochem 368042
Assay: in vitro protease assay (decomposition by Granzyme B)
Format: biochemical
Conditions: Granzyme B 0.05 μg, substrate protein 0.2 μg, 37° C. for 2 hours, SDS-PAGE, Coomassie Brilliant Blue
Protocol: An in vitro protease assay was carried out to confirm in an experiment whether or not Golgin-160 is decomposed by Granzyme B. Granzyme B, Human, cell culture-derived (Calbiochem, Catalog No. 368042) was purchased, and this product was used as Granzyme B. Granzyme B (0.05 μg) was added to 10 μl of a cleavage buffer containing TRX-Golgin-160, procaspase-3, or TRX-LAG 3 (0.2 μg each) (wherein the buffer consisted of 50 mM Hepes-KOH (pH 7.4), 2 mM EDTA, 1% NP-40, 0.1 M NaCl, and 10 mM DTT) (Kam C. M., Huding D., et al., “Granzymes (lymphocyte serine proteases): characterization with natural and synthetic substrates and inhibitors” in Biochim. Biophys. Acta, 1477:307-323 (2000)). The obtained mixture was incubated at 37° C. for 2 hours. After completion of the incubation, 2×SDS sample buffer (125 mM Tris-HCl (pH 6.8), 4% (w/v) sodium dodecyl sulfate, 20% (v/v) glycerol, 0.01% (w/v) bromophenol blue, and 20% (v/v) 2-mercaptoethanol) was added at an equivalent amount to each reaction solution, and the obtained mixture was heated for 5 minutes. Thereafter, the obtained reaction mixture was separated by SDS-PAGE and then stained with Coomassie Brilliant Blue. Thus, a protein and a decomposition product thereof were observed.

T1 sequence (P10144 21-247): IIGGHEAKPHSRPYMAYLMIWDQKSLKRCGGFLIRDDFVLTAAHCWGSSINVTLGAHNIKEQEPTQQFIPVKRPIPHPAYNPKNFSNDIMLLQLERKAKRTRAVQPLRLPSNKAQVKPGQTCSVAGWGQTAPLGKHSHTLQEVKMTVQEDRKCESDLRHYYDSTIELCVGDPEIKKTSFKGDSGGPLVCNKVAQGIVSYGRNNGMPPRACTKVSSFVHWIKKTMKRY

B1: Procaspase-3: Recombinant Human procaspase-3 (MBL/BioVision), positive control in the in vitro protease assay of Granzyme B (protein, UniProt P42574 1-277, looked up)
pro-form: MENTENSVDSKSIKNLEPKIIHGSESMDSGISLDNSYKMDYPEMGLCIIINNKNFHKSTGMTSRSGTDVDAANLRETFRNLKYEVRNKNDLTREEIVELMRDVSKEDHSKRSSFVCVLLSHGEEGIIFGTNGPVDLKKITNFFRGDRCRSLTGKPKLFIIQACRGTELDCGIETDSGVDDDMACHKIPVEADFLYAYSTAPGYYSWRNSKDGSWFIQSLCAMLKQYADKLEFMHILTRVNRKVATEFESFSFDATFHAKKQIPCIVSMLTKELYFYH
modifications: pro-form
notes: Recombinant Human procaspase-3 (MBL/BioVision), positive control in the in vitro protease assay of Granzyme B
  decomposition by Granzyme B: decomposed
